Laboratory results taken from patent publication US20130084301A1.

Assays:
[1] = target: E2 of genotype 1a HCVcc (hepatitis C virus genotype 1a); assay: cell-based or functional assay
[2] = target: HCV E2 glycoprotein, genotype 1a (H77c) (hepatitis C virus genotype 1a, H77c) (UniProt P27958)
CD81 = CD81 (UniProt P60033); assay: cell-based or functional assay
CD81, sequence (P60033 whole entry): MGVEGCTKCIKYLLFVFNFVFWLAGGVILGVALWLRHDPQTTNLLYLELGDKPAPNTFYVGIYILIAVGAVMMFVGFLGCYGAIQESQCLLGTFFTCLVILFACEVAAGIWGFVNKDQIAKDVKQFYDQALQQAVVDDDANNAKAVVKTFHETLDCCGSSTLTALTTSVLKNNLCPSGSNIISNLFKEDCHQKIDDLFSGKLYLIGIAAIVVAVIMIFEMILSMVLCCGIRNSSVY

| Substance | 50% inhibition, neutralization of 1a HCVcc [1] | % reduction of E2 binding to CD81 [2] | reduction in viral infectivity, mutant 1a HCVpp (luciferase) (CD81) |
| --- | --- | --- | --- |
| CBH-5 (antibody) | > 100 µg/mL | > 90% | – |
| HCV 1a E2 with alanine substitution at 437 (from UniProt P27958 384-746) | – | – | > 95% |
| HCV 1a E2 with alanine substitution at 429 (from UniProt P27958 384-746) | – | – | > 95% |
| HCV 1a E2 with alanine substitution at 441 (from UniProt P27958 384-746) | – | – | > 95% |
| HCV 1a E2 with alanine substitution at 428 (from UniProt P27958 384-746) | – | – | 84% |
| HCV 1a E2 with alanine substitution at 420 (from UniProt P27958 384-746) | – | – | > 95% |
| HCV 1a E2 with alanine substitution at 446 (from UniProt P27958 384-746) | – | – | 60% |
| HCV 1a E2 with alanine substitution at 616 (from UniProt P27958 384-746) | – | – | > 95% |
| HCV 1a E2 with alanine substitution at 442 (from UniProt P27958 384-746) | – | – | > 95% |
| HCV 1a E2 with alanine substitution at 443 (from UniProt P27958 384-746) | – | – | 79% |
| HCV 1a E2 with alanine substitution at 613 (from UniProt P27958 384-746) | – | – | > 95% |
